# Experimental data from patent US20180185467A1 (Harvard, published 2018).
# T1: endogenous RIG-I (human, UniProt O95786 1-925)
# T1 construct: also called retinoic acid-inducible gene-I
# T1 sequence: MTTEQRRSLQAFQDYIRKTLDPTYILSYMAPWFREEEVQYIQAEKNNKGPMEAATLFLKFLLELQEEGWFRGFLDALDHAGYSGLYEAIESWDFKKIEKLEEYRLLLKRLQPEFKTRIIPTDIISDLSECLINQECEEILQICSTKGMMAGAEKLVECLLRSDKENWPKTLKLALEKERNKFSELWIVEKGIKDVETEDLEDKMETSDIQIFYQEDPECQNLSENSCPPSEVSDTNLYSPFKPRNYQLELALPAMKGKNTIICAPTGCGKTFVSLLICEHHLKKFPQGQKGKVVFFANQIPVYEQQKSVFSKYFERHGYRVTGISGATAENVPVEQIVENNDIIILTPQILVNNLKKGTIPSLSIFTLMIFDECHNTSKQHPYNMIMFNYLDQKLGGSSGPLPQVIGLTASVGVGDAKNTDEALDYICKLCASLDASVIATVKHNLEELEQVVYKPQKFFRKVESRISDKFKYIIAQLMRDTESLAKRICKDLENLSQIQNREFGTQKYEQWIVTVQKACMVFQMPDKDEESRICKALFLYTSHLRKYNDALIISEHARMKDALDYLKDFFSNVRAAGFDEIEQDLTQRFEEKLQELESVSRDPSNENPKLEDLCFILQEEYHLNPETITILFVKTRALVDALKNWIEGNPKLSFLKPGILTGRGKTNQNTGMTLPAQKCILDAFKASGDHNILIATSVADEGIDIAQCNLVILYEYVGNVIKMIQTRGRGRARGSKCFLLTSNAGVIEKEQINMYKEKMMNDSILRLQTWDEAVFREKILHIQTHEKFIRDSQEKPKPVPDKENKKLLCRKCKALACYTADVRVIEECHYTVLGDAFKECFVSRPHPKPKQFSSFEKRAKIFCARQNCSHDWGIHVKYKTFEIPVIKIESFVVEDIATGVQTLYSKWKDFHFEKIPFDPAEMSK
# T2: RIG-I-FLAG (UniProt O95786 1-925)
# T2 construct: also called purified RIG-I-FLAG
# T2 sequence: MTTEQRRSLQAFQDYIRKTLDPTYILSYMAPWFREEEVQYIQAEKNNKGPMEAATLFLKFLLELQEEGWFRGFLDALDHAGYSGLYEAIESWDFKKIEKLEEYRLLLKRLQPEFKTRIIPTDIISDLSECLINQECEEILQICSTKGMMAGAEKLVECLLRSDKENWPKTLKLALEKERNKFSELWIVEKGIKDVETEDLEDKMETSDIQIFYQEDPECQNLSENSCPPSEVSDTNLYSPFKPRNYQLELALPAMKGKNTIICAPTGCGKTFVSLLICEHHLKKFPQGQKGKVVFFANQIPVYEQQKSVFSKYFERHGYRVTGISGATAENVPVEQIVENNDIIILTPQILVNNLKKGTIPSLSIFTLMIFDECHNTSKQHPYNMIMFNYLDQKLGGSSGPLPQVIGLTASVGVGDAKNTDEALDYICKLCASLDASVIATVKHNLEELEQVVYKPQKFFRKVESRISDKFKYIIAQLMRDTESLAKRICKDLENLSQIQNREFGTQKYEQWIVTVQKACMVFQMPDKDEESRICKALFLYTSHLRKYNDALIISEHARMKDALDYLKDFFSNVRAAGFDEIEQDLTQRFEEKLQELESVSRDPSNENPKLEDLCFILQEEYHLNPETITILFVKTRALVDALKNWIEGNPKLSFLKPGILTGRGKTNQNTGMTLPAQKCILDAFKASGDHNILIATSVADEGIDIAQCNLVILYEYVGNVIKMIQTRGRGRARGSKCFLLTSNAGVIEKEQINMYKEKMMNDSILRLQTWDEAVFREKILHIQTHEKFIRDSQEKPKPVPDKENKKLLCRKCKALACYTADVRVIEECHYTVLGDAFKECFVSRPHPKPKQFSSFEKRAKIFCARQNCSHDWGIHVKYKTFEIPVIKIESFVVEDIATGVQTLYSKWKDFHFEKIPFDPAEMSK
# B1: endogenous 14-3-3ε (other)
# chain: MDDREDLVYQAKLAEQAERYDEMVESMKKVAGMDVELTVEERNLLSVAYKNVIGARRASWRIISSIEQKEENKGGEDKLKMIREYRQMVETELKLICCDILDVLDKHLIPAANTGESKVFYYKMKGDYHRYLAEFATGNDRKEAAENSLVAYKAASDIAMTELPPTHPIRLGLALNFSVFYYEILNSPDRACRLAKAAFDDAIAELDTLSEESYKDSTLIMQLLRDNLTLWTSDMQGDGEEQNKEALQDVEDENQ
# B2: bacterially-purified recombinant human 14-3-3ε protein (NP_006752.1) (other)
# chain: MDDREDLVYQAKLAEQAERYDEMVESMKKVAGMDVELTVEERNLLSVAYKNVIGARRASWRIISSIEQKEENKGGEDKLKMIREYRQMVETELKLICCDILDVLDKHLIPAANTGESKVFYYKMKGDYHRYLAEFATGNDRKEAAENSLVAYKAASDIAMTELPPTHPIRLGLALNFSVFYYEILNSPDRACRLAKAAFDDAIAELDTLSEESYKDSTLIMQLLRDNLTLWTSDMQGDGEEQNKEALQDVEDENQ
# notes: also called recombinant (r) 14-3-3ε; r14-3-3ε
# Tests used:
# endogenous 14-3-3ε = endogenous 14-3-3ε (UniProt P62258)
# endogenous RIG-I = target: T1, endogenous RIG-I; experiment: Co-IP with anti-RIG-I from SeV-infected cells, immunoblot with anti-14-3-3ε
# [1] = target: T3, FLAG-NS5-MTase (NS5 methyltransferase domain, aa 1-319) (dengue virus serotype 2, strain NGC, UniProt P14340 2492-2810); experiment: FLAG affinity purification from HEK293T cells and mass spectrometry
# T3 construct: domain: NS5 methyltransferase (aa 1-319); also called pEF-BOS-FLAG-NS5-MTase; not shown: FLAG tag
# [2] = target: T4, GST-NS3 of HCV (strain Con1) (Hepatitis C virus, strain Con1, UniProt Q9WMX2 1027-1657); experiment: GST pull-down in 293T cells, immunoblot with anti-14-3-3ε
# T4 construct: domain: NS3; also called HCV NS3; NS3 of Hepatitis C virus
# RIG-I-FLAG = target: T2, RIG-I-FLAG; experiment: in vitro binding assay on anti-FLAG beads, immunoblot
# T4 sequence (Q9WMX2 1027-1657): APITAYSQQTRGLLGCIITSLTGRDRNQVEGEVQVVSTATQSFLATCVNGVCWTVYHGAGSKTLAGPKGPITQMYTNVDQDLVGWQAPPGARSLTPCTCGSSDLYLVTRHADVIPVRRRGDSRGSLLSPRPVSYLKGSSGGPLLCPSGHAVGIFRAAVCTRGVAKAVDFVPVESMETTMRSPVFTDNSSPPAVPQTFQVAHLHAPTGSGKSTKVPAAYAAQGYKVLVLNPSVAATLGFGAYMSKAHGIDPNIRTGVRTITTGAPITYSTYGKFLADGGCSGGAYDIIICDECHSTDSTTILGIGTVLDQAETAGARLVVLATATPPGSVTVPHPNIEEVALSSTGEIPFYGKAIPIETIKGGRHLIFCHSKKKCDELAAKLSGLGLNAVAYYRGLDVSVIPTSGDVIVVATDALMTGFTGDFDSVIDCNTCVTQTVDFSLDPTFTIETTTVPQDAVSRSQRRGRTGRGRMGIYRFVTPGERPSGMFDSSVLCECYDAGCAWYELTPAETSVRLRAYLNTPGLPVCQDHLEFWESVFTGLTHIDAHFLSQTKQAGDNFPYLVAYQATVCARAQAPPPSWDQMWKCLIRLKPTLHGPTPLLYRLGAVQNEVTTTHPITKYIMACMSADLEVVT
molecule,measurement,setting,value
NS3 of DV2 NGC in infected Huh7 cells,"translocation of RIG-I to the MAVS-containing mitochondrial fraction (fractionation, immunoblot)",endogenous 14-3-3ε,RIG-I failed to translocate to the MAVS-containing mitochondrial fraction during DV infection
B1,binding result,endogenous RIG-I,binds
same,binding result,[1],no binding
same,binding result,[2],no binding
B2,binding result,RIG-I-FLAG,binds
